# Measurements reported in patent US8124586 (DYAX, dated 2012).
# How the values were obtained:
# human plasmin = human plasmin (human, UniProt P00747 97-810, limits assumed); experiment: protease inhibition, Ki,app
# human plasma kallikrein [1] = biological target: T1, human plasma kallikrein (human, UniProt P03952 20-638); experiment: protease inhibition, Ki,app
# T1 construct: The active enzyme comes from the zymogen prekallikrein
# [2] = biological target: porcine pancreatic kallikrein (porcine, UniProt P00752 8-246); experiment: protease inhibition, Ki,app
# human plasma factor XIa = human plasma factor XIa (human, UniProt P03951 19-625); experiment: protease inhibition, Ki,app
# human plasma kallikrein [3] = biological target: T1, human plasma kallikrein; experiment: ratio of Ki,app values, reference aprotinin
# T1 sequence (P03952 20-638 limits assumed): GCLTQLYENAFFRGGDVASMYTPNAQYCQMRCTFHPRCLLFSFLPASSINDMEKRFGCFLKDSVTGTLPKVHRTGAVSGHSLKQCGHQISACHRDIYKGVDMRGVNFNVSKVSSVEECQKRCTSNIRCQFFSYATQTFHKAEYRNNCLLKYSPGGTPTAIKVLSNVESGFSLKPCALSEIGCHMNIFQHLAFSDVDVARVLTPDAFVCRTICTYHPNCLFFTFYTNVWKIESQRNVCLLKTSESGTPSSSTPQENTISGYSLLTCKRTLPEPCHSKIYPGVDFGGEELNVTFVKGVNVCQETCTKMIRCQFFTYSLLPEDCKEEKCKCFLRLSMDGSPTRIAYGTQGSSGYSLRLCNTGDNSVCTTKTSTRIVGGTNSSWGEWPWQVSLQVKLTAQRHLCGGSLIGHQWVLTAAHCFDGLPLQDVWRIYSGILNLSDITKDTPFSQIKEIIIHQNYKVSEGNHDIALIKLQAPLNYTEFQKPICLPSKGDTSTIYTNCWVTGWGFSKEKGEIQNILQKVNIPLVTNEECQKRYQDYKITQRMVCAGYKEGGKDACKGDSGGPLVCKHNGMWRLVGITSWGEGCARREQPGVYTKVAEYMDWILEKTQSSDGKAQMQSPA
# porcine pancreatic kallikrein, sequence (P00752 8-246): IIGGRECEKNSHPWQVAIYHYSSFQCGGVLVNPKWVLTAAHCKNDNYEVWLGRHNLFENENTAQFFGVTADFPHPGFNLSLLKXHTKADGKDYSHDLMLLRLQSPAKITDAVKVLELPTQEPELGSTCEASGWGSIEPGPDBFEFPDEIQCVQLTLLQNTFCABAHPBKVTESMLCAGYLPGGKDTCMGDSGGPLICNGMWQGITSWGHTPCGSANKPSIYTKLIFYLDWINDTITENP
# human plasmin, sequence (P00747 97-810 limits assumed): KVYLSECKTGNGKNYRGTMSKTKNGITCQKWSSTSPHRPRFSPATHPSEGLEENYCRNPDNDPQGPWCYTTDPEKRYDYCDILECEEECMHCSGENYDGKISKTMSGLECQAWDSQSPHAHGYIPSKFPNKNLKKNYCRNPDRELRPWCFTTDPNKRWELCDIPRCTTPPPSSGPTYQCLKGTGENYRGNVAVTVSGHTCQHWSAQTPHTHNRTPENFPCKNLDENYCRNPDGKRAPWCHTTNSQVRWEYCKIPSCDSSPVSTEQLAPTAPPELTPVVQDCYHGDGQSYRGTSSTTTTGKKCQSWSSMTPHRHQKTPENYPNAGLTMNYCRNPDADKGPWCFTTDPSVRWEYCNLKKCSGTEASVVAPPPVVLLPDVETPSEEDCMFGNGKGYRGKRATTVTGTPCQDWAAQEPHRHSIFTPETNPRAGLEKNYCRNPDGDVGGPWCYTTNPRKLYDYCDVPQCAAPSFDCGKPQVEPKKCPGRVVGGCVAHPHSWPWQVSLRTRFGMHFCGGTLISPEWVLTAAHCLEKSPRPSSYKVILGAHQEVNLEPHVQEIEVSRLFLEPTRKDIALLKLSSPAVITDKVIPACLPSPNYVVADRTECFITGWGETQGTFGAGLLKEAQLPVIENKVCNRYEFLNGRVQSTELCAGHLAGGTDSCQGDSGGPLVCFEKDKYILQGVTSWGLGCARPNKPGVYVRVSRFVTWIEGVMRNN
binder,measurement,setting,value
"PEP-1 KI polypeptide (designed binder, Non-naturally occurring Kunitz domain polypeptide from a phage display library; Molecular weight 7,054 Daltons) EAMHSFCAFKADDGPCRAAHPRWFFNIFTRQCEEFIYGGCEGNQNRFESLEECKKMCTRD",Ki,human plasmin,140 nM
same,Ki,human plasma kallikrein [1],0.044 nM
same,Ki,[2],27 µM
same,Ki,human plasma factor XIa,10 nM
same,"fold higher affinity (Ki,app) than aprotinin",human plasma kallikrein [3],1000 fold
